# B1: pol3-01: proofreading deficient pol3-01 allele encodes POL3 (D321A, E323A) (protein, UniProt P15436 1-1097, looked up, variant D321A E323A)
# DNA polymerase delta …: MSEKRSLPMVDVKIDDEDTPQLEKKIKRQSIDHGVGSEPVSTIEIIPSDSFRKYNSQGFKAKDTDLMGTQLESTFEQELSQMEHDMADQEEHDLSSFERKKLPTDFDPSLYDISFQQIDAEQSVLNGIKDENTSTVVRFFGVTSEGHSVLCNVTGFKNYLYVPAPNSSDANDQEQINKFVHYLNETFDHAIDSIEVVSKQSIWGYSGDTKLPFWKIYVTYPHMVNKLRTAFERGHLSFNSWFSNGTTTYDNIAYTLRLMVDCGIVGMSWITLPKGKYSMIEPNNRVSSCQLEVSINYRNLIAHPAEGDWSHTAPLRIMSFAIACAGRIGVFPEPEYDPVIQIANVVSIAGAKKPFIRNVFTLNTCSPITGSMIFSHATEEEMLSNWRNFIIKVDPDVIIGYNTTNFDIPYLLNRAKALKVNDFPYFGRLKTVKQEIKESVFSSKAYGTRETKNVNIDGRLQLDLLQFIQREYKLRSYTLNAVSAHFLGEQKEDVHYSIISDLQNGDSETRRRLAVYCLKDAYLPLRLMEKLMALVNYTEMARVTGVPFSYLLARGQQIKVVSQLFRKCLEIDTVIPNMQSQASDDQYEGATVIEPIRGYYDVPIATLDFNSLYPSIMMAHNLCYTTLCNKATVERLNLKIDEDYVITPNGDYFVTTKRRRGILPIILDELISARKRAKKDLRDEKDPFKRDVLNGRQLALKISANSVYGFTGATVGKLPCLAISSSVTAYGRTMILKTKTAVQEKYCIKNGYKHDAVVVYGDTDSVMVKFGTTDLKEAMDLGTEAAKYVSTLFKHPINLEFEKAYFPYLLINKKRYAGLFWTNPDKFDKLDQKGLASVRRDSCSLVSIVMNKVLKKILIERNVDGALAFVRETINDILHNRVDISKLIISKTLAPNYTNPQPHAVLAERMKRREGVGPNVGDRVDYVIIGGNDKLYNRAEDPLFVLENNIQVDSRYYLTNQLQNPIISIVAPIIGDKQANGMFVVKSIKINTGSQKGGLMSFIKKVEACKSCKGPLRKGEGPLCSNCLARSGELYIKALYDVRDLEEKYSRLWTQCQRCAGNLHSEVLCSNKNCDIFYMRVKVKKELQEKVEQLSKW
# Test system: genomic CAN1 gene
# Experiment: Fluctuation tests of the genomic CAN1 gene (POL3 mutator strains)
# Format: cell-based, S. cerevisiae
# Conditions: genomic mutation rate
# Description: To construct POL3 mutator strains, plasmids were transformed into AH22 encoding wild-type POL3 on a URA3 plasmid or Δmsh6 AH22 encoding wild-type POL3 on a URA3 plasmid. Transformants were expanded in selective SC medium and spot plated on selective SC medium or selective SC medium supplemented with 5-FOA (1 g/L) for plasmid shuffle of the plasmid encoding wild-type POL3 via URA3 counter-selection (Boeke et al., 1984).
# Fluctuation tests of the genomic CAN1 gene were performed to determine genomic per-base substitution rates. To minimize propagation of POL3 mutator strains, fluctuation tests were performed directly on colonies from plasmid shuffle plates. For each strain, 48 colonies from plasmid shuffle plates were individually scraped and resuspended in 120 μL 0.9% NaCl. 10 μL from each resuspension was diluted and subject to an event counts measurement via flow cytometry. This was done to identify colonies of similar cell count, because fluctuation tests are only appropriate when final population sizes for all replicates are similar. 24 resuspensions with similar event counts were used for fluctuation tests. […] Colonies were counted from titer plates after 2-4 days and from spot plates after 3-6 days. […]
# Fluctuation data were analyzed as described above for URA3 fluctuation data, but with mutation frequency parameters for CAN1 (Lang et al., 2008). […]
molecule,measurement,value
B1,mutational increase,58 fold

# From US20230242902A1, “A HIGHLY ERROR-PRONE […] R[…] FOR TARGETED CONTINUOUS EVOLUTION IN VIVO” (The Regents of the University of California, priority 2017, published 2023)
